Molecular target: T1, DHX36 (UniProt Q9H2U1)
T1 sequence (Q9H2U1 whole entry, looked up): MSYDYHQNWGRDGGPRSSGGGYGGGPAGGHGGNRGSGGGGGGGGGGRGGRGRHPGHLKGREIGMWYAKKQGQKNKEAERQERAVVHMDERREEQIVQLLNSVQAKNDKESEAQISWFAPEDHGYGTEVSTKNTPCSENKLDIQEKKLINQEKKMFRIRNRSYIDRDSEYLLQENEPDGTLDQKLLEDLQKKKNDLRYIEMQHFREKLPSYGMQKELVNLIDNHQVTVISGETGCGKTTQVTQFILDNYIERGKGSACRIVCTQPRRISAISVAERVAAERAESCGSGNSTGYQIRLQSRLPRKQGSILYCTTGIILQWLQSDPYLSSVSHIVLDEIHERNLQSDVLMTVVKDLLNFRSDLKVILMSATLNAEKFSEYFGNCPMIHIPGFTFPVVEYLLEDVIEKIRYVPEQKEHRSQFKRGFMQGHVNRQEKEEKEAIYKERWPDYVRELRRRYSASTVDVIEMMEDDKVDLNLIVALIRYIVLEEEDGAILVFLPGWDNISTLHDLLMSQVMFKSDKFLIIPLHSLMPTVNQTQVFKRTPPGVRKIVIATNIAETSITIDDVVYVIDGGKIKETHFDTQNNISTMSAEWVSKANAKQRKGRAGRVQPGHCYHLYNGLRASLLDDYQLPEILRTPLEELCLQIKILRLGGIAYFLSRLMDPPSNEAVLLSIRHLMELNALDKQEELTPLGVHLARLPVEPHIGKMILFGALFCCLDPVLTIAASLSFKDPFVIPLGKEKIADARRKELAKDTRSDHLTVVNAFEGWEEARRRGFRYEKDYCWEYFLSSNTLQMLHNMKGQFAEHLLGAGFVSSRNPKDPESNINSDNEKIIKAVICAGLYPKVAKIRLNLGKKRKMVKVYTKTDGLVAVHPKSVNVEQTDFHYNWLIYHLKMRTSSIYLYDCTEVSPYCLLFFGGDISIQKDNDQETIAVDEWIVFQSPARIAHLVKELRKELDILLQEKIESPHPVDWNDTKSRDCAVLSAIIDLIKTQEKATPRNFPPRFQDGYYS
Assay: ELISA
Details: ELISA performed as in Zyner et al. (ref 43); buffer, salt, pH and temperature not given in the material

UGUGGGAGGGGCGGGUCUGGGUGC [NRAS G4]
Kd: 900 pM
